Reference: patent publication US20240124586A1 (WUXI BIOLOGICS IRELAND, published 2024)
Where two headings read alike, the source gives them in different places.

What was measured:
[1] = target: T1, human CD3 on CD3+ Jurkat cells (human, UniProt P07766 23-207; P09693 23-182; P04234 22-171); assay: FACS on CD3+ Jurkat cells
T1 construct: whole, on cells; also called CD3 positive Jurkat cells

[2] = target: T1, human CD3 on CD3+ Jurkat cells; assay: FACS on CD3+ Jurkat cells; remark: listed apart in the source
[3] = target: T1, human CD3 on CD3+ Jurkat cells; assay: FACS on CD3+ Jurkat cells; remark: listed apart in the source
[4] = target: T2, human CD19 on CD19+ B cell lines (Ramos, Raji) (human, UniProt P15391 20-556); assay: FACS on CD19+ Ramos cells
T2 construct: whole, on cells; also called CD19+ Ramos cells; CD19+ Raji cells
T2 sequence (looked up): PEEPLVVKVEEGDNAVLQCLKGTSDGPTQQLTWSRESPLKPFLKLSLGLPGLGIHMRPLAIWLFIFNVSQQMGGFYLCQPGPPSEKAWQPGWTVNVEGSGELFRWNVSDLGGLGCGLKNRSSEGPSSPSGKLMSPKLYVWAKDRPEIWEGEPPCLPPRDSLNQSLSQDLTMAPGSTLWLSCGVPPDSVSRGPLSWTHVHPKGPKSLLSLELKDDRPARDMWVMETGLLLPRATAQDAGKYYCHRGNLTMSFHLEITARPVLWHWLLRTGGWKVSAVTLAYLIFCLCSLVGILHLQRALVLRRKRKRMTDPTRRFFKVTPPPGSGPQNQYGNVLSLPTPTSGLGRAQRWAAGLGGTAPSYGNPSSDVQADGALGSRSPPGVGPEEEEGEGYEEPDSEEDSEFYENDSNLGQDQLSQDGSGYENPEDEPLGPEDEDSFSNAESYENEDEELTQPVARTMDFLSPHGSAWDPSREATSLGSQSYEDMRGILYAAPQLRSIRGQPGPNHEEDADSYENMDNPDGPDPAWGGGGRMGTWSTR

[5] = target: T2, human CD19 on CD19+ B cell lines …; assay: FACS on CD19+ Ramos cells; remark: listed apart in the source
[6] = target: T3, human PD-1 on engineered CHO-S cells (W305-CHO-S.hPro1.C6) (human, UniProt Q15116 25-288); assay: FACS binding to human PD-1 engineered cells
T3 construct: whole, on cells; also called human PD-1 engineered cells; PD-1+ cells
T3 sequence (Q15116 25-288, change not shown): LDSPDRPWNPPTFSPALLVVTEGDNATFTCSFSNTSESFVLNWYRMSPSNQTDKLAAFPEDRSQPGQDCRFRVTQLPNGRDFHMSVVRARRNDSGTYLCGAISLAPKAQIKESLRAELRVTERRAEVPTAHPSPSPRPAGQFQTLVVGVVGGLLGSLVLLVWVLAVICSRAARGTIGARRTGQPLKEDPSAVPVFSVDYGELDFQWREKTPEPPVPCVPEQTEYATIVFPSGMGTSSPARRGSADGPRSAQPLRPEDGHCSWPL
Procedure: Engineered human PD-1 expressing cells W305-CHO-S.hPro1.C6 were seeded at 1×10⁵ cells/well in U-bottom 96-well plates (COSTAR 3799). Antibodies with 3.16-fold titration in 1% BSA DPBS from 200 nM to 0.002 nM were added to the cells. The plates were incubated at 4° C. for 1 hour. After wash, […] 1:125 diluted PE-labeled goat anti-human antibody (Jackson 109-115-098) was added to each well and the plates were incubated at 4° C. for 1 hour. The binding of the antibodies onto the cells was tested by flow cytometry and the mean fluorescence intensity (MFI) was analyzed by FlowJo.

[7] = target: T4, human CTLA-4 on engineered 293F cells (W316-293F.hPro1.FL) (human, UniProt P16410 36-223); assay: FACS binding to human CTLA-4 engineered cells
T4 construct: whole, on cells; also called human CTLA-4 engineered cells; CTLA-4+ cells
T4 sequence (P16410 36-223, change not shown): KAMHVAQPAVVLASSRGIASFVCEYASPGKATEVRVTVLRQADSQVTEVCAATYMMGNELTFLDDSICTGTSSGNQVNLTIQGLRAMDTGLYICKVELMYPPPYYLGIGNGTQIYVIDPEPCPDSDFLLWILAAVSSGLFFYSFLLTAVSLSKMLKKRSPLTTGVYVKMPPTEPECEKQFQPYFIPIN
Procedure: (§1) 3.16-fold titrated Abs with 1% BSA DPBS from 200 nM to 0.002 nM were added to the cells. Plates were incubated at 4° C. for 1 hour. After wash, […] 1:150 diluted PE-labeled goat anti-human antibody (Jackson 109-115-098) was added to each well and the plates were incubated at 4° C. for 1 hour. The binding of the antibodies onto the cells was tested by flow cytometry and the mean fluorescence intensity (MFI) was analyzed by FlowJo.

[8] = target: T3, human PD-1 on engineered CHO-S cells …; assay: ELISA binding to human PD-1 (legend says 'engineered cells'; the form of the antigen in the ELISA is not described)
[9] = target: T4, human CTLA-4 on engineered 293F cells …; assay: ELISA binding to human CTLA-4 (legend says 'engineered cells'; the form of the antigen in the ELISA is not described)
[10] = target: T5, cynomolgus CTLA-4 on engineered 293F cells (W316-293F.cynoPro1.F1.Pool) (cynomolgus); assay: FACS binding to cynomolgus CTLA-4 engineered cells
T5 construct: whole, on cells; also called cynomolgus CTLA-4 engineered cells
Procedure: as §1, with “4-fold” for “3.16-fold”, “40 μg/ml” for “200 nM”, “0.00004 μg/ml” for “0.002 nM”

[11] = target: cynomolgus CTLA-4 protein (cynomolgus, UniProt G7PL88 36-161, Probably biotinylated for streptavidin-PE detection, as described for the human CTLA-4 reagent in paragraph 775; the letters cannot carry this.); assay: FACS competition: blocks cynomolgus CTLA-4 protein binding to human CD80 engineered cells
Chain of cynomolgus CTLA-4 protein (G7PL88 entry or part of it limits assumed): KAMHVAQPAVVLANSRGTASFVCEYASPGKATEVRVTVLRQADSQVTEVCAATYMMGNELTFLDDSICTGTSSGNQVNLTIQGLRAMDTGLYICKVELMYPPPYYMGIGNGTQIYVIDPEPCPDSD
Procedure: (§2) Competitive FACS was used to test whether the antibodies could block human or cynomolgus CTLA-4 binding to hCD80 on cell surface. […] Then the mixtures of antibody and CTLA-4 were added to the cells and incubated for 1 hour at 4° C. The cells were washed two times with 200 μl FACS washing buffer (DPBS containing 1% BSA). Streptavidin PE (BD Pharmingen-554061) 1 to 600 diluted in FACS buffer was added to the cells and incubated at 4° C. for 1 hour. Additional washing steps were performed two times with 200 μL FACS washing buffer followed by centrifugation at 1500 rpm for 4 minutes at 4° C. Finally, the cells were resuspended in 100 μL FACS washing buffer and fluorescence values were measured by flow cytometry and analyzed by FlowJo.

[12] = target: T6, biotinylated human CTLA-4.ECD.hFc (W316-hPro1.ECD.hFc.Biotin) (human, UniProt P16410 36-161, biotin-labelled (site not stated)); assay: FACS competition: blocks biotinylated human CTLA-4.ECD.hFc binding to human CD80 engineered cells
T6 construct: extracellular domain; In-house protein; also called hCTLA-4.ECD.hFc-Biotin; human CTLA-4 protein
T6 sequence (P16410 36-161): as the sequence (G7PL88 entry or part of it limits assumed) above, with N14S, T18I, M106L counted along it
Procedure: as §2

T1 sequence (P07766 23-207, chain 1 of 3): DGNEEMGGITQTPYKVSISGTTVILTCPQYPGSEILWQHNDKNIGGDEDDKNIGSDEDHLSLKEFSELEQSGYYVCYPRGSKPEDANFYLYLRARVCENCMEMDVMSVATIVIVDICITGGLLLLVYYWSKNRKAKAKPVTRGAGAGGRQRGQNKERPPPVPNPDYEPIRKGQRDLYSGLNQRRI
T1 sequence (P09693 23-182, chain 2 of 3): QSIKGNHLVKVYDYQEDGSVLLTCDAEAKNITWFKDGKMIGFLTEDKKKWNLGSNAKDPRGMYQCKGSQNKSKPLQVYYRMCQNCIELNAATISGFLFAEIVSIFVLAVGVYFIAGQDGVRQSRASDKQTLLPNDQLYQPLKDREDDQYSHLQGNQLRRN
T1 sequence (P04234 22-171, chain 3 of 3): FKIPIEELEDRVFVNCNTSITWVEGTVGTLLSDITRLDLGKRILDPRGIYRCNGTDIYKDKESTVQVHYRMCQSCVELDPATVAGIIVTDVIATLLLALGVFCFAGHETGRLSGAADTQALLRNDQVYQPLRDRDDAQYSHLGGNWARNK

B1: anti-CD3 antibody T3 (wild type, IgG1) (antibody, V domains shown)
VH: QVQLVQSGAEVKKPGSSVKVSCKASGFAFTDYYIHWVRQAPGQGLEWMGWISPGNVNTKYNENFKGRVTITADKSTSTAYMELSSLRSEDTAVYYCARDGYSLYYFDYWGQGTLVTVSS
VL: DIVMTQSPDSLAVSLGERATINCKSSQSLLNSRTRKNYLAWYQQKPGQPPKLLIYWASTRQSGVPDRFSGSGSGTDFTLTISSLQAEDVAVYYCTQSHTLRTFGGGTKVEIK
notes: Human IgG1; also called T3-IgG1; native antibody T3
B1 was tested, and the “EC50 (read off the curve)” value [1] was about 0.2 nM and the “EC50 (read off the curve)” value [2] was about 0.2 nM.

B2: T3-IgG4 (antibody, V domains shown)
VH: B1 VH
VL: B1 VL
notes: m1 is the IgG1 form of the same antibody; also called wild type anti-CD3 antibody T3 in IgG4 format
With B2 the “EC50 (read off the curve)” value [3] was about 0.05 nM.

B3: anti-CD19 antibody U4 (wild type) (antibody, V domains shown)
VH: QMQLVQSGPEVKKPGTSVKVSCKASGYAFTSYNMYWVRQARGQRLEWIGYIDPYNGDTTYNQKFKGRVTITRDMSTSTAYMELSSLRSEDTAVYYCLTTAYAMDYWGQGTLVTVSS
VL: DIQLTQSPSFLSASVGDRVTITCSASSTVNYMHWYQQKPGKAPKLLIYSTSNLASGVPSRFSGSGSGTEFTLTISSLQPEDFATYYCHQWSSYPYTFGQGTKLEIKR
notes: also called native U4; wild type antibody U4
In the case of B3, the “EC50 (read off the curve)” value [4] is reported as about 0.5 nM and the “EC50 (read off the curve)” value [5] is reported as about 0.3 nM.

B4: U6T4.G26.IgG4, bispecific anti-PD-1 x CTLA-4 (bispecific antibody)
chain: EVQLLESGGGLVQPGGSLRLSCAASGFTFSSHAMSWVRQAPGKGLEWVSTITGGGGSIYYADSVKGRFTISRDNSKNTLYLQMNSLRAEDTAVYYCAKNRAGEGYFDYWGQGTLVTVLEDLKNVFPPEVAVFEPSEAEISHTQKATLVCLATGFYPDHVELSWWVNGKEVHSGVCTDPQPLKEQPALQDSRYALSSRLRVSATFWQNPRNHFRCQVQFYGLSENDEWTQDRAKPVTQIVSAEAWGRGGGGSGGGGSDIVMTQTPLSLSVTPGQPASISCRSSQSLLNSDGNTYLYWYLQKPGQSPQLLIYLVSKLGSGVPNRFSGSGSGTDFTLKISRVEAEDVGVYYCVQGTHDPWTFGGGTKVEIKRTVAAPSVFIFPPSDEQLKSGTASVVCLLNNFYPREAKVQWKVDNALQSGNSQESVTEQDSKDSTYSLSSTLTLSKADYEKHKVYACEVTHQGLSSPVTKSFNRGEC
light: SYELTQPLSVSVALGQTARITCGGDNIGNKDVHWYQQKPGQAPVLVIYRDSNRPSGIPEGFSGSNSGNTATLTISRAQAGDEADYYCQVWDSIWVFGGGTKLTVLPDIQNPDPAVYQLRDSKSSDKSVCLFTDFDSQTQVSQSKDSDVYITDKCVLDMRSMDFKSNSAVAWSQKSDFACANAFQNSIIPEDTFFPSPESS
heavy: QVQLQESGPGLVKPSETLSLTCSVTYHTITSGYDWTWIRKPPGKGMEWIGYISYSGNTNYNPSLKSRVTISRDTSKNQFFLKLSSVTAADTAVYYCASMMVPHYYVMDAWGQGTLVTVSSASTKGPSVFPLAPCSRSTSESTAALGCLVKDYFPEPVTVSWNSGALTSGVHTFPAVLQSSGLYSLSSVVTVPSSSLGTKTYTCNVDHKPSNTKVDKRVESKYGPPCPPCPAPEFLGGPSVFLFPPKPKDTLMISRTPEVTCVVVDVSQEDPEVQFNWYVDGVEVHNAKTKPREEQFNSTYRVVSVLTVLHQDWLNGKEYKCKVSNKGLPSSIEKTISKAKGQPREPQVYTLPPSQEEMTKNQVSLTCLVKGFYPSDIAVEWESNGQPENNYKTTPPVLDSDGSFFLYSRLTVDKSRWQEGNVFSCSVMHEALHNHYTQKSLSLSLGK
notes: Light-heavy crossed chimeric Fab; first chain is U6-HC fused to T4-LC; also called U6T4 antibody pair in G26 format
With B4 the EC50 [6] was 1.84 nM, the EC50 [7] was 59.8 nM and the EC50 [8] was 0.102 nM. It also gave an EC50 [9] of 0.177 nM.

B5: W3162_1.154.8-z35-IgG1K (antibody, V domains shown)
VH: QVQLVQSGAEVKKPGSSVKVSCKASGYTFTNYFMNWVRQAPGQGLEWMGRVDPEQGRADYAEKFKKRVTITADKSTSTAYMELSSLRSEDTAVYYCARRAMDNYGFAYWGQGTLVTVSS
VL: EIVLTQSPDFQSVTPKEKVTITCSANSALSYMYWYQQKPDQSPKLWVHGTSNLASGVPSRFSGSGSGTDFTLTINSLEAEDAATYYCHHWSNTQWTFGGGTKVEIK
notes: anti-CTLA-4 antibody, parent of the T5 arm; also called W3162_1.154.8-z35 (named T5)
In the case of B5, the EC50 [10] is reported as 0.699 nM, the “Top(MFI)” value [10] is reported as 10800 MFI and the IC50 [11] is reported as 1.47 nM. For the same binder, the IC50 [12] was 0.594 nM.
